B1: Bacillus PS3 ATP synthase subunit ε (natural protein, UniProt P07678 1-132, looked up)
chain: MKTIHVSVVTPDGPVYEDDVEMVSVKAKSGELGILPGHIPLVAPLEISAARLKKGGKTQYIAVSGGFLEVRPDNVTILAQAAERAEDIDVLRAKARKSGRTPLQSQQDDIDFKRAELALKRAMNRLSVAEMK
notes: ATP synthase subunit epsilon, Bacillus PS3; source: E. coli strain DK8, plasmid pTR-ASDS; purified as part of the whole ATP synthase (GDN, HisTrap HP, Superose 6)
B2: Bacillus PS3 ATP synthase subunit c (natural protein, UniProt P00845 1-72, looked up)
chain: MSLGVLAAAIAVGLGALGAGIGNGLIVSRTIEGIARQPELRPVLQTTMFIGVALVEALPIIGVVFSFIYLGR
notes: ATP synthase subunit c, Bacillus PS3; ring of ten copies; also called c-ring; c10; source: E. coli strain DK8, plasmid pTR-ASDS; purified as part of the whole ATP synthase (GDN, HisTrap HP, Superose 6); copies: 10

Experiments:
Assay in all cases: cryo-EM structure; intact Bacillus PS3 ATP synthase in GDN, three rotational states at 2.9, 2.9 and 3.1 Å; focused refinement of the membrane-embedded region at 3.3 Å
[1] = target: T1, Bacillus PS3 ATP synthase subunit γ (Bacillus PS3, UniProt P09222 5-286); settings: both partners purified
T1 construct: ATP synthase subunit gamma, Bacillus PS3; source: E. coli strain DK8, plasmid pTR-ASDS; purified as part of the whole ATP synthase (GDN, HisTrap HP, Superose 6)
T1 sequence (P09222 5-286): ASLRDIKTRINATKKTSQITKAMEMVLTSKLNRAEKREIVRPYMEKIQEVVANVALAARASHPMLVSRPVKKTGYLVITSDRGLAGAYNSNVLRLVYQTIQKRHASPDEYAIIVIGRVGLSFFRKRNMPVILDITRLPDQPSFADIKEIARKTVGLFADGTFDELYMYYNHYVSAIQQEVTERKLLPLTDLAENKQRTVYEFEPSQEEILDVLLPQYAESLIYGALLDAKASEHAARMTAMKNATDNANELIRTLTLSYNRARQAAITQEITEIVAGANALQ

[2] = target: T2, Bacillus PS3 ATP synthase subunit α (Bacillus PS3, UniProt P09219 1-502); settings: both partners purified
T2 construct: ATP synthase subunit alpha, Bacillus PS3; three copies in the complex (α3β3γδε ab2c10); Part of the intact complex α3β3γδε ab2c10; also called αDP; source: E. coli strain DK8, plasmid pTR-ASDS; purified as part of the whole ATP synthase (GDN, HisTrap HP, Superose 6)
T2 sequence (P09219 whole entry): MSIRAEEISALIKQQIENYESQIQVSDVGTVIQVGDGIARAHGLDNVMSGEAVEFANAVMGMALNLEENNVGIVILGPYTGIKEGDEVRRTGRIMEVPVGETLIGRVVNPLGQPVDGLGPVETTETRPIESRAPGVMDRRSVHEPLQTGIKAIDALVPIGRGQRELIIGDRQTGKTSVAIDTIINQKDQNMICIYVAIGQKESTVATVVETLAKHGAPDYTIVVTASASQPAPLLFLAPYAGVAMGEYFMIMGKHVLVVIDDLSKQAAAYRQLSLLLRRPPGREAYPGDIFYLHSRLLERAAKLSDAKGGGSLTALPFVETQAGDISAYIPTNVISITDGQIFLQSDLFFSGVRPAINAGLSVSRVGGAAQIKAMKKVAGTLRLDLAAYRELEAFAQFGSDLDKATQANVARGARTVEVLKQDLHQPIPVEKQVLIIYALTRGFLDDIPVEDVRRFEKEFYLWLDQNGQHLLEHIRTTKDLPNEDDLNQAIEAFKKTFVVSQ

[3] = target: the molecule itself

Row | Binder | binding result [1] | binding result [2] | stoichiometry N [3]
1 | B1 | binds | binds | 
2 | B2 |  |  | 10

Reference: paper doi:10.1101/463968, “Structure of a bacterial ATP synthase” (bioRxiv, 2018)
